Reference: article PMC10648076, “Statistical Improvement of rGILCC 1 and rPOXA 1B Laccases Activity Assay Conditions Supported by Molecular Dynamics” (Molecules, 2023)

Substrate: CCn1c(=NN=c2sc3cc(S(=O)(=O)O)ccc3n2CC)sc2cc(S(=O)(=O)O)ccc21
Assay: spectrophotometric ABTS oxidation; Michaelis-Menten fit
Type: biochemical, Pleurotus ostreatus
Conditions: 100 mM sodium citrate buffer, pH 3.0 ± 0.2, 25 °C, apparent constant, enzyme concentrate
From the text: spectrophotometric ABTS oxidation; Michaelis-Menten fit on rPOXA 1B

B1: rPOXA 1B (Pleurotus ostreatus) (protein)
chain: SIGPRGTLNIANKVIQPDGFYRSTVLAGGSYPGPLIKGKTGDRFQINVVNKLADTSMPVDTSIHWHGLFVKGHNWADGPAMVTQCPIVPGHSFLYDFEVPDQAGTFWYHSHLGTQYCDGLRGPLVVYSKNDPHKRLYDVDDESTVLTVGDWYHAPSLSLTGVPHPDSTLFNGLGRSLNGPASPLYVMNVVKGKRYRIRLINTSCDSNYQFSIDGHTFTVIEADGENTQPLQVDQVQIFAGQRYSLVLNANQAVGNYWIRANPNSGDPGFENQMNSAILRYKGARSIDPTTPEQNATNPLHEYNLRPLIKKPAPGKPFPGGADHNINLNFAFDPATALFTANNHTFVPPTVPVLLQILSGTRDAHDLAPAGSIYDIKLGDVVEITMPALVFAGPHPIHLHGHTFAVVRSAGSSTYNYENPVRRDVVSIGDDPTDNVTIRFVADNAGPWFLHCHIDWHLDLGFAVVFAEGVNQTAAANPVPEAWNNLCPIYNSSNPSKLLMGTNAIGRLPAPLKA
notes: secreted from Pichia pastoris/pGAPZαA-LaccPost-Stop (Clone 1); recombinant culture concentrate, not purified
  Km: 37.2 µM
  Vmax: 10.5 µM/min
